From article PMC10761123 (RNA Biology, 2023)

Target: the molecule itself
Test: crystal structure

B1: Arabidopsis thaliana PUMY K185A mutant, C-terminal His-tagged, as crystallized (enzyme, UniProt Q84K35 21-330, looked up)
chain: EANNKLRSLVKISPQVSEALSNGRAVVALESTIISHGMPYPQNLQTAKEVESIVRENGAIPATIAILNGVPCIGLSEEELERLASLGKSVQKTAGRDIANVVATRGNGATTVSATLFFASMVGIQVFVTGGIGGVHRHANHSMDISSDLTALGRTPIAVISAGVASILDIPKTLEYLETQEVYVAAYKSDEFPAFFTEKSGCKAPSRVNSPEDCARVIDANMKLNRQAGILFAIPIPKHHSAAGNLIESATQRALTEAREQNVTGNAETPFLLARVNELTGGTSLAANIALVKNNALIGSQIAVALSQLM
**Q.** B1 was tested. Which “stoichiometry N” value did it give?
**A.** 3
